This is an account of results in patent US11278600B2, “Human alpha-galactosidase variants” (Codexis, Inc., priority 2014, dated 2022).

Residue numbers refer to the chain shown, from its start.

Type in all cases: biochemical
Data set [1] in a line: HTP-analysis of yeast culture supernatants, no challenge (MUGal hydrolysis). The note with it: yeast supernatant. Summed up: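 GLA variants were expressed in INVSc1 yeast grown in SD-Ura broth with glucose at 30° C., and culture supernatants were collected after 66-84 h. Supernatant was mixed with McIlvaine buffer pH 4.8 and MUGal (2 mM stock) in 50 mM citrate, 200 mM KCl, pH 4.6, incubated at 37° C. for 30-180 minutes, then quenched with sodium carbonate.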

The nature of data set [2]: HTP-analysis of supernatants pretreated with acid (MUGal hydrolysis). Conditions: challenge at pH 4.2, yeast supernatant. Summed up: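 Yeast INVSc1 supernatant, GLA variants; acid challenge: McIlvaine pH 3.3-4.3, 37° C., 1-3 h. Assay: MUGal in McIlvaine pH 4.8 plus citrate pH 4.3, 37° C., 30-180 min, Na2CO3 stop, Ex 355/Em 448 nm.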
A short description of data set [3]: HTP-analysis of supernatants pretreated with base (MUGal hydrolysis). Conditions: yeast supernatant; for Relative Activity of GLA Variants After Challenge at pH 7.1: activity of the variant/activity of WT GLA (SEQ ID NO: 5); for Relative Activity of GLA Variants After Challenge at pH 7.6: activity of the variant/activity of Rd2BB (SEQ ID NO: 10). The essentials:
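GLA variants secreted from yeast INVSc1; culture supernatants pre-incubated with McIlvaine buffer pH 7.0–8.2 or 200 mM bicarbonate pH 9.1–9.7 at 37° C. for 1–18 h. Residual activity: MUGal (4 mM stock) hydrolysis at pH 4.3–4.8, 37° C., 30–180 min, carbonate quench; fluorescence Ex 355/Em 448 nm.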

The mark [4] stands for this setting: activity of the variant/activity of WT GLA (SEQ ID NO: 5).
The mark [5] stands for this setting: activity of the variant/activity of Rd2BB (SEQ ID NO: 10).

B1: 117 (protein)
chain: LDNGLARTPTMGWLHWERFMCNLDCQEEPDSCISEKLFMEMAELMVSEGWKDAGYEYLCIDDCWMAPQRDSEGRLQADPQRFPHGIRQLANYVHSKGLKLGIYADVGNKTCAGFPGSFGYYDIDAQTFADWGVDLLKFDGCYCDSLENLADGYKHMSLALNRTGRSIVYSCEWPLYMWPFQKPNYTEIRQYCNHWRNFADIDDSWKSIKSILDWTSFNQERIVDVAGPGGWNDPDMLVIGNFGLSWNQQVTQMALWAIMAAPLFMSNDLRHISPQAKALLQDKDVIAINQDPLGKQGYQLRQGDNFEVWERPLSGLAWAVAMINRQEIGGPRSYTIAVASLGKGVACNPACFITQLLPVKRKLGFYEWTSRLRSHINPTGTVLLQLENTMQMSKDLLG
modifications: Synthetic Polypeptide sequence of Variant No. 117 of mature Human GLA
As to B1, in data set [1] (setting [4]), the “Relative Activity of GLA Variants After No Challenge (NC)” value is listed as “++ (++ = >1.5 to 2.5 relative activity over WT GLA (SEQ ID NO: 5))”. Also, the “Relative Activity of GLA Variants After Challenge at pH 4.2” value (shortened to “Relative Activity … at pH 4.2”) in data set [2] (setting [4]) is listed as “++ (++ = >1.5 to 2.5 relative activity over WT GLA (SEQ ID NO: 5))”. The “Relative Activity of GLA Variants After Challenge at pH 7.1” value (shortened to “Relative Activity … at pH 7.1”) in data set [3] is “++ (++ = >1.5 to 2.5 relative activity over WT GLA (SEQ ID NO: 5))”.

B2: 121 (protein)
chain: B1 chain with L44R, L384F, G398L
modifications: Synthetic Polypeptide sequence of Variant No. 121 of mature Human GLA
Take B2: the “Relative Activity of GLA Variants After No Challenge (NC)” value in data set [1] (setting [4]) was “+ (+ = 0.5 to 1.5 relative activity over WT GLA (SEQ ID NO: 5))”. In data set [2] (setting [4]), the “Relative Activity … at pH 4.2” value is “++ (++ = >1.5 to 2.5 relative activity over WT GLA (SEQ ID NO: 5))”. For the same molecule, in data set [3], the “Relative Activity … at pH 7.1” value is on record as “++ (++ = >1.5 to 2.5 relative activity over WT GLA (SEQ ID NO: 5))”.

B3: 197 (protein)
chain: B1 chain with K206A, A350G, K362Q, T369A, G398L
modifications: Synthetic Polypeptide sequence of Variant No. 197 of mature Human GLA
For B3, in data set [1] (setting [5]), the “Relative Activity of GLA Variants After No Challenge (NC)” value is reported as “++ (++ = 1.5 to 2.5 relative activity over Rd2BB (SEQ ID NO: 10))”. The “Relative Activity … at pH 4.2” value in data set [2] (setting [5]) is listed as “++ (++ = 1.5 to 2.5 relative activity over Rd2BB (SEQ ID NO: 10))”. Further, in data set [3], the “Relative Activity of GLA Variants After Challenge at pH 7.6” value (shortened to “Relative Activity … at pH 7.6”) is recorded as “++ (++ = 1.5 to 2.5 relative activity over Rd2BB (SEQ ID NO: 10))”.

B4: 120 (protein)
chain: B1 chain with G398R
modifications: Synthetic Polypeptide sequence of Variant No. 120 of mature Human GLA
B4: in data set [1] (setting [4]), the “Relative Activity of GLA Variants After No Challenge (NC)” value is “++ (++ = >1.5 to 2.5 relative activity over WT GLA (SEQ ID NO: 5))”. Further, the “Relative Activity … at pH 4.2” value in data set [2] (setting [4]) is on record as “++ (++ = >1.5 to 2.5 relative activity over WT GLA (SEQ ID NO: 5))”. Moreover, the “Relative Activity … at pH 7.1” value in data set [3] is given as “++ (++ = >1.5 to 2.5 relative activity over WT GLA (SEQ ID NO: 5))”.

B5: 195 (protein)
chain: B1 chain with K206S, G398L
modifications: Synthetic Polypeptide sequence of Variant No. 195 of mature Human GLA
For B5, the “Relative Activity of GLA Variants After No Challenge (NC)” value in data set [1] (setting [5]) is given as “+ (+ = 0.5 to 1.5 relative activity over Rd2BB (SEQ ID NO: 10))”. Besides, in data set [2] (setting [5]), the “Relative Activity … at pH 4.2” value is on record as “+ (+ = 0.5 to 1.5 relative activity over Rd2BB (SEQ ID NO: 10))”. In addition, the “Relative Activity … at pH 7.6” value in data set [3] is “+ (+ = 0.5 to 1.5 relative activity over Rd2BB (SEQ ID NO: 10))”.

B6: 119 (protein)
chain: B1 chain with G398Q
modifications: Synthetic Polypeptide sequence of Variant No. 119 of mature Human GLA
B6: the “Relative Activity of GLA Variants After No Challenge (NC)” value in data set [1] (setting [4]) is on record as “++ (++ = >1.5 to 2.5 relative activity over WT GLA (SEQ ID NO: 5))”. The “Relative Activity … at pH 4.2” value in data set [2] (setting [4]) is recorded as “++ (++ = >1.5 to 2.5 relative activity over WT GLA (SEQ ID NO: 5))”. Also, the “Relative Activity … at pH 7.1” value in data set [3] is “++ (++ = >1.5 to 2.5 relative activity over WT GLA (SEQ ID NO: 5))”.

B7: 118 (protein)
chain: B1 chain with G398N
modifications: Synthetic Polypeptide sequence of Variant No. 118 of mature Human GLA
Regarding B7, in data set [1] (setting [4]), the “Relative Activity of GLA Variants After No Challenge (NC)” value is recorded as “++ (++ = >1.5 to 2.5 relative activity over WT GLA (SEQ ID NO: 5))”. The “Relative Activity … at pH 4.2” value in data set [2] (setting [4]) is “++ (++ = >1.5 to 2.5 relative activity over WT GLA (SEQ ID NO: 5))”. Further, the “Relative Activity … at pH 7.1” value in data set [3] was “++ (++ = >1.5 to 2.5 relative activity over WT GLA (SEQ ID NO: 5))”.

B8: 194 (protein)
chain: B1 chain with K206R, G398L
modifications: Synthetic Polypeptide sequence of Variant No. 194 of mature Human GLA
As for B8, the “Relative Activity of GLA Variants After No Challenge (NC)” value in data set [1] (setting [5]) is recorded as “++ (++ = 1.5 to 2.5 relative activity over Rd2BB (SEQ ID NO: 10))”. Besides, the “Relative Activity … at pH 4.2” value in data set [2] (setting [5]) is given as “++ (++ = 1.5 to 2.5 relative activity over Rd2BB (SEQ ID NO: 10))”. The “Relative Activity … at pH 7.6” value in data set [3] is on record as “++ (++ = 1.5 to 2.5 relative activity over Rd2BB (SEQ ID NO: 10))”.

B9: 196 (protein)
chain: B1 chain with K206A, A350G, G398L
modifications: Synthetic Polypeptide sequence of Variant No. 196 of mature Human GLA
In the case of B9, the “Relative Activity of GLA Variants After No Challenge (NC)” value in data set [1] (setting [5]) is given as “+ (+ = 0.5 to 1.5 relative activity over Rd2BB (SEQ ID NO: 10))”. Further, the “Relative Activity … at pH 4.2” value in data set [2] (setting [5]) is on record as “+ (+ = 0.5 to 1.5 relative activity over Rd2BB (SEQ ID NO: 10))”. For the same molecule, the “Relative Activity … at pH 7.6” value in data set [3] is on record as “+ (+ = 0.5 to 1.5 relative activity over Rd2BB (SEQ ID NO: 10))”.

B10: 122 (protein)
chain: B1 chain with L44T, G398L
modifications: Synthetic Polypeptide sequence of Variant No. 122 of mature Human GLA
In the case of B10, the “Relative Activity of GLA Variants After No Challenge (NC)” value in data set [1] (setting [4]) is on record as “++ (++ = >1.5 to 2.5 relative activity over WT GLA (SEQ ID NO: 5))”. In addition, in data set [2] (setting [4]), the “Relative Activity … at pH 4.2” value is on record as “++ (++ = >1.5 to 2.5 relative activity over WT GLA (SEQ ID NO: 5))”. The “Relative Activity … at pH 7.1” value in data set [3] was “++ (++ = >1.5 to 2.5 relative activity over WT GLA (SEQ ID NO: 5))”.

B11: 35 (protein)
chain: B1 chain with A339S, G398L
modifications: Synthetic Polypeptide sequence of Variant No. 35 of mature Human GLA
On to B11, for which the “Relative Activity of GLA Variants After No Challenge (NC)” value in data set [1] (setting [4]) was “++ (++ = >1.5 to 2.5 relative activity over WT GLA (SEQ ID NO: 5))”. Further, in data set [2] (setting [4]), the “Relative Activity … at pH 4.2” value is reported as “++ (++ = >1.5 to 2.5 relative activity over WT GLA (SEQ ID NO: 5))”. For the same molecule, the “Relative Activity … at pH 7.1” value in data set [3] is given as “++ (++ = >1.5 to 2.5 relative activity over WT GLA (SEQ ID NO: 5))”.
